Values quoted from earlier work in article PMC5669632.

Columns and labels:
[1] = target: His25 (UniProt position 25, HGSALHWRAAG); experiment: electrophysiology; conditions: not stated for the quoted data (the present recordings are said to follow the same earlier protocols)
[2] = target: Glu118 (UniProt position 118, WFVGREQERRG); experiment: electrophysiology; conditions: not stated for the quoted data (the present recordings are said to follow the same earlier protocols)
[3] = closed channel state (model parameter pKa closed)
[4] = open channel state (model parameter pKa open)

| Substance | pKa [1, 3] | pKa [1, 4] | pKa [2, 3] | pKa [2, 4] |
| --- | --- | --- | --- | --- |
| KcsA potassium channel, E71A (non-inactivating control channel) (Streptomyces lividans; E71A) | 4.8 (N/A) | 7.6 | – | – |
| KcsA potassium channel, H25R/E71A (Streptomyces lividans; H25R;E71A) | – | – | 5.0 (0.1) | 6.2 (0.1) |
